The results in this text go back to patent US20090304588A1.

For the experiment, the target named is T1, Hyperpolarization-activated cyclic-nucleotide-gated (HCN) ion channel 1 (HCN1).
T1 sequence (O60741 1-890, species assumed, looked up): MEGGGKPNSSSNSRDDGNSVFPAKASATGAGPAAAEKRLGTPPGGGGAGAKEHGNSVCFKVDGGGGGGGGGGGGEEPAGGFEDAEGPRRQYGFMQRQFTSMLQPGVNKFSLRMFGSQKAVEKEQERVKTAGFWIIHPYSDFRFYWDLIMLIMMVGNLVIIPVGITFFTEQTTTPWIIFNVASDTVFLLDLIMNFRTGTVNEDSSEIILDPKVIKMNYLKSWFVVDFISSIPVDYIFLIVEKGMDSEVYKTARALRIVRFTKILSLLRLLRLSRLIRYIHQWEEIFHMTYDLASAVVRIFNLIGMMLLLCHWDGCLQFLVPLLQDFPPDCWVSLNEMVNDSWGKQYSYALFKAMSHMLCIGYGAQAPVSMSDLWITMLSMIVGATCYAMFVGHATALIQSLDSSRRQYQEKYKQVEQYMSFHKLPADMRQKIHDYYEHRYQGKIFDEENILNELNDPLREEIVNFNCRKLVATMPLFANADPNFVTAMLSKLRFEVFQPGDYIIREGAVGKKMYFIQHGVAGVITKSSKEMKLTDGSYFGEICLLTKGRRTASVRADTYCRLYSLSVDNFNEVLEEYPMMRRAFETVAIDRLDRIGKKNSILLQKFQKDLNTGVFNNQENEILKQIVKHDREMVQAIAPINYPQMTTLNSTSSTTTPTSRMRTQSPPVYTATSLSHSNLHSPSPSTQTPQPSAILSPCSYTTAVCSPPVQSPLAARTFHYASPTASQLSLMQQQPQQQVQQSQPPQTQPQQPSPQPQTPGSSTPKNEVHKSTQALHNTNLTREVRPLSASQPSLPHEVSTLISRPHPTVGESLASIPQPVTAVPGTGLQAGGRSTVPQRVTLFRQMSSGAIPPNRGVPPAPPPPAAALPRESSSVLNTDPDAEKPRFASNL
Kind of experiment: cell-based or functional assay.

As to “S4TKv1.4GYS (human Kv1.4 with S4 triple mutation R447N, L448A, R453I and pore mutation G528S) (from UniProt P22459 1-653)”, the reversal potential of HCN co-transfected with SPC was -22 mV and the reversal potential of the current left after superfusion with Cs to block HCN1 homomultimers was -11.1 mV.
